This is an account of results in patent US20250186597A1, “TARGETED IMMUNE ACTIVATION WITH IL-18 IMMUNOCYTOKINES” (BRIGHT PEAK THERAPEUTICS AG, priority 2023, published 2025).

Common to all, as to assay: cell-based or functional assay
Experiment [1] addresses IL-18 polypeptide C143 (V11I, C38A, K53A, C76A, C127A) (human) (UniProt Q14116).
The target of experiment [2] is IL-18 polypeptide C144 (V11I, C38A, K53A, T63A, C76A, C127A) (human) (UniProt Q14116).
Experiment [3] deals with IL-18 polypeptide C145 (V11I, C38A, K53A, S55A, C76A, C127A) (human) (UniProt Q14116).
Experiment [4] has as its target IL-18 polypeptide C146 (SEQ ID NO: 68; V11I, C38A, M51G, K53A, C76A, C127A) (human) (UniProt Q14116).
The target in experiment [5] is IL-18 polypeptide C150 (V11I, T34A, C38A, K53A, C76A, C127A) (human) (UniProt Q14116).
In experiment [6] the target is IL-18 polypeptide C151 (V11I, D35A, C38A, K53A, C76A, C127A) (human) (UniProt Q14116).
For experiment [7], the target named is IL-18 polypeptide C152 (V11I, S36A, C38A, K53A, C76A, C127A) (human) (UniProt Q14116).
Experiment [8] deals with IL-18 polypeptide C155 (V11I, C38A, D40A, K53A, C76A, C127A) (human) (UniProt Q14116).
Experiment [9] has as its target IL-18 polypeptide C156 (V11I, C38A, N41A, K53A, C76A, C127A) (human) (UniProt Q14116).
For experiment [10], the target named is IL-18 polypeptide C157 (V11I, C38A, K53A, C76A, C127A, D132A) (human) (UniProt Q14116).
Experiment [11] deals with IL-18 polypeptide C158 (V11I, C38A, K53A, C76A, G108A, C127A) (human) (UniProt Q14116).
Experiment [12] addresses IL-18 polypeptide C160 (V11I, C38A, K53A, C76A, D110A, C127A) (human) (UniProt Q14116).
The target in experiment [13] is IL-18 polypeptide C167 (V11I, C38A, C76A, S105I, C127A) (human) (UniProt Q14116).
Experiment [14] concerns the target IL-18 polypeptide C168 (V11I, C38A, C76A, S105K, C127A) (human) (UniProt Q14116).
For experiment [15], the target named is IL-18 polypeptide of SEQ ID NO: 31 (C38A, C76A, C127A) (human) (UniProt Q14116).
For experiment [16], the target named is IL-18 polypeptide of SEQ ID NO: 36 (K53A) (human) (UniProt Q14116).
Experiment [17] addresses IL-18 polypeptide of SEQ ID NO: 37 (S55A) (human) (UniProt Q14116).
The target in experiment [18] is IL-18 polypeptide of SEQ ID NO: 42 (E06K, K53A, S55A, T63A) (human) (UniProt Q14116).
Experiment [19] deals with IL-18 polypeptide of SEQ ID NO: 46 (E06K, K53A, S55A, M51G) (human) (UniProt Q14116).
Experiment [20] has as its target IL-18 polypeptide of SEQ ID NO: 47 (C38S, C68S, C76S, C127S) (human) (UniProt Q14116).
In experiment [21] the target is IL-18 polypeptide of SEQ ID NO: 6 (E6K, V11I, C38A, K53A, T63A, C68A, C76A, D98C, C127A) (human) (UniProt Q14116).
For experiment [22], the target named is IL-18 polypeptide of SEQ ID NO: 60 (E6K, C38Q, K53A) (human) (UniProt Q14116).
IL-18 polypeptide of SEQ ID NO: 60 (E6K, C38Q, K53A) (human), sequence (Q14116 other isoform, or with tags, fused parts or gaps C38Q K53A C38Q K53A): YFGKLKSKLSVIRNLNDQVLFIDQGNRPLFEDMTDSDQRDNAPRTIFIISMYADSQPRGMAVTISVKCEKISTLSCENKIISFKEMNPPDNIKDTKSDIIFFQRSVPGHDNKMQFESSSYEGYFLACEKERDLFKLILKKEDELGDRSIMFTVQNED

IL-18 polypeptide C160 (V11I, C38A, K53A, C76A, D110A, C127A) (human), sequence (Q14116 37-193 V47I/C74A/K89A/C112A/D146A/C163A): as the sequence (Q14116 other isoform, or with tags, fused parts or gaps C38Q K53A C38Q K53A) above, with K6E, V11I, Q38A, C76A, D110A, C127A counted along it
IL-18 polypeptide of SEQ ID NO: 47 (C38S, C68S, C76S, C127S) (human), sequence (Q14116 37-193 C74S/C104S/C112S/C163S): as the sequence (Q14116 other isoform, or with tags, fused parts or gaps C38Q K53A C38Q K53A) above, with K6E, Q38S, A53K, C68S, C76S, C127S counted along it
IL-18 polypeptide C167 (V11I, C38A, C76A, S105I, C127A) (human), sequence (Q14116 37-193 V47I/C74A/C112A/S141I/C163A): as the sequence (Q14116 other isoform, or with tags, fused parts or gaps C38Q K53A C38Q K53A) above, with K6E, V11I, Q38A, A53K, C76A, S105I, C127A counted along it
IL-18 polypeptide of SEQ ID NO: 46 (E06K, K53A, S55A, M51G) (human), sequence (Q14116 37-193 E42K/M87G/K89A/S91A): as the sequence (Q14116 other isoform, or with tags, fused parts or gaps C38Q K53A C38Q K53A) above, with Q38C, M51G, S55A counted along it
IL-18 polypeptide C155 (V11I, C38A, D40A, K53A, C76A, C127A) (human), sequence (Q14116 37-193 V47I/C74A/D76A/K89A/C112A/C163A): as the sequence (Q14116 other isoform, or with tags, fused parts or gaps C38Q K53A C38Q K53A) above, with K6E, V11I, Q38A, D40A, C76A, C127A counted along it
IL-18 polypeptide of SEQ ID NO: 36 (K53A) (human), sequence (Q14116 37-193 K89A): as the sequence (Q14116 other isoform, or with tags, fused parts or gaps C38Q K53A C38Q K53A) above, with K6E, Q38C counted along it
IL-18 polypeptide C156 (V11I, C38A, N41A, K53A, C76A, C127A) (human), sequence (Q14116 37-193 V47I/C74A/N77A/K89A/C112A/C163A): as the sequence (Q14116 other isoform, or with tags, fused parts or gaps C38Q K53A C38Q K53A) above, with K6E, V11I, Q38A, N41A, C76A, C127A counted along it
IL-18 polypeptide C151 (V11I, D35A, C38A, K53A, C76A, C127A) (human), sequence (Q14116 37-193 V47I/D71A/C74A/K89A/C112A/C163A): as the sequence (Q14116 other isoform, or with tags, fused parts or gaps C38Q K53A C38Q K53A) above, with K6E, V11I, D35A, Q38A, C76A, C127A counted along it
IL-18 polypeptide C150 (V11I, T34A, C38A, K53A, C76A, C127A) (human), sequence (Q14116 37-193 V47I/T70A/C74A/K89A/C112A/C163A): as the sequence (Q14116 other isoform, or with tags, fused parts or gaps C38Q K53A C38Q K53A) above, with K6E, V11I, T34A, Q38A, C76A, C127A counted along it
IL-18 polypeptide C143 (V11I, C38A, K53A, C76A, C127A) (human), sequence (Q14116 37-193 V47I/C74A/K89A/C112A/C163A): as the sequence (Q14116 other isoform, or with tags, fused parts or gaps C38Q K53A C38Q K53A) above, with K6E, V11I, Q38A, C76A, C127A counted along it
IL-18 polypeptide C152 (V11I, S36A, C38A, K53A, C76A, C127A) (human), sequence (Q14116 37-193 V47I/S72A/C74A/K89A/C112A/C163A): as the sequence (Q14116 other isoform, or with tags, fused parts or gaps C38Q K53A C38Q K53A) above, with K6E, V11I, S36A, Q38A, C76A, C127A counted along it
IL-18 polypeptide of SEQ ID NO: 6 (E6K, V11I, C38A, K53A, T63A, C68A, C76A, D98C, C127A) (human), sequence (Q14116 other isoform, or with tags, fused parts or gaps with the stated changes): as the sequence (Q14116 other isoform, or with tags, fused parts or gaps C38Q K53A C38Q K53A) above, with V11I, Q38A, T63A, C68A, C76A, D98C, C127A counted along it
IL-18 polypeptide C145 (V11I, C38A, K53A, S55A, C76A, C127A) (human), sequence (Q14116 37-193 V47I/C74A/K89A/S91A/C112A/C163A): as the sequence (Q14116 other isoform, or with tags, fused parts or gaps C38Q K53A C38Q K53A) above, with K6E, V11I, Q38A, S55A, C76A, C127A counted along it
IL-18 polypeptide C146 (SEQ ID NO: 68; V11I, C38A, M51G, K53A, C76A, C127A) (human), sequence (Q14116 37-193 V47I/C74A/M87G/K89A/C112A/C163A): as the sequence (Q14116 other isoform, or with tags, fused parts or gaps C38Q K53A C38Q K53A) above, with K6E, V11I, Q38A, M51G, C76A, C127A counted along it
IL-18 polypeptide of SEQ ID NO: 37 (S55A) (human), sequence (Q14116 37-193 S91A): as the sequence (Q14116 other isoform, or with tags, fused parts or gaps C38Q K53A C38Q K53A) above, with K6E, Q38C, A53K, S55A counted along it
IL-18 polypeptide C158 (V11I, C38A, K53A, C76A, G108A, C127A) (human), sequence (Q14116 37-193 V47I/C74A/K89A/C112A/G144A/C163A): as the sequence (Q14116 other isoform, or with tags, fused parts or gaps C38Q K53A C38Q K53A) above, with K6E, V11I, Q38A, C76A, G108A, C127A counted along it
IL-18 polypeptide C144 (V11I, C38A, K53A, T63A, C76A, C127A) (human), sequence (Q14116 37-193 V47I/C74A/K89A/T99A/C112A/C163A): as the sequence (Q14116 other isoform, or with tags, fused parts or gaps C38Q K53A C38Q K53A) above, with K6E, V11I, Q38A, T63A, C76A, C127A counted along it
IL-18 polypeptide C157 (V11I, C38A, K53A, C76A, C127A, D132A) (human), sequence (Q14116 37-193 V47I/C74A/K89A/C112A/C163A/D168A): as the sequence (Q14116 other isoform, or with tags, fused parts or gaps C38Q K53A C38Q K53A) above, with K6E, V11I, Q38A, C76A, C127A, D132A counted along it
IL-18 polypeptide of SEQ ID NO: 31 (C38A, C76A, C127A) (human), sequence (Q14116 37-193 C74A/C112A/C163A): as the sequence (Q14116 other isoform, or with tags, fused parts or gaps C38Q K53A C38Q K53A) above, with K6E, Q38A, A53K, C76A, C127A counted along it
IL-18 polypeptide C168 (V11I, C38A, C76A, S105K, C127A) (human), sequence (Q14116 37-193 V47I/C74A/C112A/S141K/C163A): as the sequence (Q14116 other isoform, or with tags, fused parts or gaps C38Q K53A C38Q K53A) above, with K6E, V11I, Q38A, A53K, C76A, S105K, C127A counted along it
IL-18 polypeptide of SEQ ID NO: 42 (E06K, K53A, S55A, T63A) (human), sequence (Q14116 37-193 E42K/K89A/S91A/T99A): as the sequence (Q14116 other isoform, or with tags, fused parts or gaps C38Q K53A C38Q K53A) above, with Q38C, S55A, T63A counted along it

As to “Fc fused human IL-18 binding protein isoform a (IL-18BPa; R&D systems, Cat #119-BP) (from UniProt O95998 31-194) (Fc fusion)”, the IC50 of inhibition by IL-18BP of IFNγ stimulation in NK92 cells is 1.62 nM in experiment [1]; 7.52 nM in experiment [2]; 10.2 nM in experiment [3]; 733 nM in [4]; 21.3 nM in experiment [5]; 3.62 nM in experiment [6]. Further, the IC50 of inhibition by IL-18BP of IFNγ stimulation in NK92 cells was determined as 7.85 nM in [7]; 3.23 nM in experiment [8]; 0.681 nM in [9]; 6.08 nM in [10]; 3.98 nM in experiment [11]; 3.18 nM in [12]. Moreover, the IC50 of inhibition by IL-18BP of IFNγ stimulation in NK92 cells in [13] turned out to be 0.809 nM; in experiment [14] it was 0.176 nM; in [16] it was 27.3 nM; in [17], 4.46 nM; in experiment [18] it was 1060 nM; in experiment [19], 0.189 nM. Moreover, the IC50 of inhibition by IL-18BP of IFNγ stimulation in NK92 cells stood at 0.444 nM in experiment [20], 5.85 nM in experiment [21] and 780 nM in [22]. The same substance returned an IC50 of IL-18BP-mediated inhibition of IFNγ secretion by NK92 cells in experiment [15] of 0.282 nM.
